Patent US10160812B2, “Bispecific HER2 antibodies” (MedImmune, LLC, priority 2014, dated 2018)
Where “and” joins values, the source holds several entries; their conditions need not be identical. Identical values can stand only once.

Key:
Assay in all cases: ProteOn SPR binding of 39S to captured chimeric Her2 variants
[1] = molecular target: T1, chimeric human/mouse Her2 variants (Mus musculus, UniProt P70424, G218R/I215S/I220V/R231P/S223G/T222A); details: variant KI_192-208, human amino acids 192-208 grafted into mouse Her2; read-out: The binding affinity of 39S (KD)
T1 construct: His tag; made in house; host or cells: HEK293F (transient, pEBNA vector; captured from culture supernatant)
Excerpt: (§1) The domain II of human HER2 was identified as the epitope of 39S by swapping domains between human and mouse Her2 molecules. Mouse Her2 was chosen as the chimeric partner because it is not recognized by 39S, but shares 85% sequence identity with human HER2. Chimeric variants targeting each domain of HER2 were constructed (see method below) as listed in Table 4, including four knock-out (KO, loss-of-function) variants replacing domain I, II, III, or IV of human HER2 with the mouse counterpart, and one knock-in (KI, gain-of-function) variant grafting the domain II of human HER2 into mouse Her2 molecule. The chimeric variant nomenclature denotes types of variants (KO/KI) and the number of domains swapped. The binding profiles of 39S to these variants were characterized using a SPR based instrument ProteOn™ by capturing variants on sensor surfaces using anti-human and mouse Her2 polyclonal antibodies (see method below). The expression of the variants was monitored by anti-His polyclonal antibody using ProteOn™. […] Therefore, the domain II (amino acid 146-310) of human HER2 was identified as the epitope-containing domain of 39S by both loss-of-function and gain-of-function variants.
(§2) We further refined the epitope of 39S and identified the region of amino acid 192-208 in domain II as the critical epitope region. […] Seven knock-out variants were generated by replacing each of the following human HER2 regions with the mouse counterparts, including amino acids 146-208, 159-162, 171-187, 192-208, 250-261, 276-285, and 295-296. In addition, one knock-in variant was constructed by grafting the region of amino acid 192-208 of human HER2 to the mouse molecule. The variant nomenclature denotes types of variants (KO/KI) and the swapped regions with amino acid numbering. All variants had detectable expression levels by anti-His polyclonal antibody (Table 4). […] The binding of 39S was not impacted when substituting any other regions of human HER2 with mouse amino acids (KO_159-162, KO_171-187, KO_250-261, KO_276-285, and KO_295-296). […] Taken together, the region of amino acid 192-208 in domain II of human HER2 was identified as the functional epitope of 39S.
(§3) The variant nomenclature denotes types of variants (KO/KI) and the swapped regions with amino acid numbering. Amino acid positions were denoted basing on the numbering scheme of mature human HER2 sequences without its signal peptide. The expression levels of all variants were monitored by an anti-His polyclonal antibody. The binding profiles of 39S to these variants were characterized using a SPR based instrument ProteOn™ by capturing variants on sensor surfaces using anti-human and mouse Her2 polyclonal antibodies.
(§4) Construction and expression of chimeric human/mouse Her2 variants were constructed as follows. Briefly, DNAs encoding chimeric human/mouse Her2 variants with a His tag were assembled and amplified by overlapping PCR using human and mouse Her2 plasmids as templates (MedImmune). The assembled DNAs were cloned into the mammalian expression vector pEBNA (MedImmune). HEK293F cells were then transiently transfected with the various constructs using 293fectin and standard protocols according to the manufacturer's instructions (Invitrogen).
(§5) The binding characteristics of 39S to chimeric human/mouse variants were studied using a ProteOn™ XPR36 instrument (BioRad). Standard amine coupling was used to immobilize an anti-human or mouse Her2 polyclonal antibody (R&D System) in 10 mM sodium acetate (pH 5.0) to the surface of a GLC biosensor chip at ˜5000 resonance units (RU) for each channel. The chimeric proteins in cell culture supernatant were injected and captured by anti-human or mouse polyclonal antibodies onto the GLC surface with a ˜200RU response. Anti-HER2 mAb 39S was diluted in phosphate-buffered saline (PBS) (pH 7.4) with 0.005% Tween-20 from 10 nM to 0.625 nM (1:2 dilution), and injected at 100 μL/min for 180 sec with a 600-second dissociation time. […]

[2] = molecular target: T2, chimeric human/mouse Her2 variants (Mus musculus, UniProt P70424, A197S/A354V/A504E/D184L/D202G/D360A/D439N/E308D/E418D/E503D/E575V/E586V/E640D/F420L/G218R/G341R/G353E/G389N/G498A/G506V/G558A/H204R/H397Q/H452S/I215S/I220V/I273V/I357V/I623A/K394Q/K549Q/K559R/L174F/L284P/L507G/M185I/N203S/N319H/N385D/N479H/N513H/P182L/P194H/P210S/P318L/Q421P/R175H/R231P/R430Q/R471H/R557N/R641K/S223G/S387A/S453W/S497T/S514Q/S573G/S580P/S594P/S595P/S596F/T199M/T222A/T299A/V173I/V183T/V390T/V511A/W548L/Y578F/Y617F); details: variant KO_I, swapped human HER2 amino acids 1-145; apparent affinity, variant captured on chip
T2 construct: His tag; made in house; host or cells: HEK293F (transient, pEBNA vector; captured from culture supernatant)
Excerpt: as §1, §2, §3, §4, §5

[3] = molecular target: T3, chimeric human/mouse Her2 variants (Homo sapiens, UniProt P04626, P283L/V272I); details: variant KO_250-261
T3 construct: His tag; made in house; host or cells: HEK293F (transient, pEBNA vector; captured from culture supernatant)
Excerpt: as §1, §2, §3, §4, §5

[4] = molecular target: T4, chimeric human/mouse Her2 variants (Mus musculus, UniProt P70424, A197S/D184L/D202G/E308D/G218R/H204R/I215S/I220V/I273V/L174F/L284P/M185I/N203S/N319H/P182L/P194H/P210S/P318L/R175H/R231P/S223G/T199M/T222A/T299A/V173I/V183T); details: variant KI_II, human amino acids 146-310 grafted into mouse Her2; read-out: The binding affinity of 39S (KD)
T4 construct: His tag; made in house; host or cells: HEK293F (transient, pEBNA vector; captured from culture supernatant)
Excerpt: as §1, §2, §3, §4, §5

[5] = molecular target: T5, chimeric human/mouse Her2 variants (Homo sapiens, UniProt P04626, A298T/D307E); details: variant KO_276-285
T5 construct: His tag; made in house; host or cells: HEK293F (transient, pEBNA vector; captured from culture supernatant)
Excerpt: as §1, §2, §3, §4, §5

[6] = molecular target: T6, chimeric human/mouse Her2 variants (Homo sapiens, UniProt P04626, A221T/A298T/D307E/F173L/G201D/G222S/H174R/H193P/H318N/I172V/I184M/L181P/L183D/L317P/M198T/P230R/P283L/R203H/R217G/S196A/S202N/S209P/S214I/T182V/V219I/V272I); details: variant KO_II, swapped amino acids 146-310
T6 construct: His tag; made in house; host or cells: HEK293F (transient, pEBNA vector; captured from culture supernatant)
Excerpt: as §1, §2, §3, §4, §5

Kd [1]: 0.072 nM
Kd [2]: 0.095 nM
The binding affinity of 39S (KD) [2]: retained binding
The binding affinity of 39S (KD) [3]: not impacted
Kd [4]: 0.168 nM and 0.163 nM
The binding affinity of 39S (KD) [5]: not impacted
The binding affinity of 39S (KD) [6]: did not bind and No
B1: 39S: lead optimized monoclonal antibody derived from the 1.39.1 antibody; VH SEQ ID NO:15, VL SEQ ID NO:16 (antibody, V domains shown)
VH: EVQLVESGGGLVKPGGSLRLSCAASGFTFSSYSMSWVRQAPGKGLEWVSSISSSSSYIYYADSVKGRFTISRDNAKNSLYLQMNSLRAEDTAVYYCARGGDAYNYYYFDYWGQGTLVTVSS
VL: DIVMTQTPLSLSVTPGQPASISCKSSQSVFFRSNNKNILAWYLQKPGQPPQLLIYWASSRESGVPDRFSGSGSGTDFTLKISRVEAEDVGVYYCQQYFGSPFTFGPGTKVDIK
